Data from patent publication US20050282743A1, “Molecular interactions in cells” (Arbor Vita Corporation, priority 2001, published 2005).
One block for each binder: values may come before it.

Experiments:
[1] = molecular target: T1, GST-NeDLG PDZ domains 1, 2, Q92796; assay: G assay titration, PDZ 1 ug/ml
T1 chain: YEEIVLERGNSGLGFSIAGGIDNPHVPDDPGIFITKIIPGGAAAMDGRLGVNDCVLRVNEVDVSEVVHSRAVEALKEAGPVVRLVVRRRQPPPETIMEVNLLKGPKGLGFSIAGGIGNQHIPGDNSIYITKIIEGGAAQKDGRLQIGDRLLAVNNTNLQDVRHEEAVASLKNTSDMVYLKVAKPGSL

[2] = molecular target: T2, GST-BAI-1 Associated Protein PDZ domain 2 (Mus musculus (Mouse)), Q6RHR9; assay: G assay titration, PDZ 1 ug/ml
T2 sequence (Q6RHR9 455-558): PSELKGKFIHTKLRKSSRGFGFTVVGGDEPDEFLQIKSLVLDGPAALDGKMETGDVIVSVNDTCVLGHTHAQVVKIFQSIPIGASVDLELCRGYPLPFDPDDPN

[3] = molecular target: T3, GST-PSD95 PDZ domain 3 (Homo sapiens); assay: G assay titration, PDZ 1 ug/ml
T3 chain: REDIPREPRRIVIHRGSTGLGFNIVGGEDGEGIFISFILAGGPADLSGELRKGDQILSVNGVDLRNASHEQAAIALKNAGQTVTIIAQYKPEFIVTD

[4] = molecular target: T4, GST-DLG1 PDZ domain 2 (Homo sapiens), Q12959; assay: G' assay; further: key of the grades not given here
T4 chain: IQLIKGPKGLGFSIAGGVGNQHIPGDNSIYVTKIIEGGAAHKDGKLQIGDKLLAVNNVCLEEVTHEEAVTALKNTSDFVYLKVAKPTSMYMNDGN

[5] = molecular target: T5, GST-NeDLG PDZ domain 2 (Rattus norvegicus (Rat)), Q62936; assay: G' assay; further: key of the grades not given here
T5 chain: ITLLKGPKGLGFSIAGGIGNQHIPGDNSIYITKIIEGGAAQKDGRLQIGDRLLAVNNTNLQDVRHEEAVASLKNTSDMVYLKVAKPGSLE

[6] = molecular target: T6, GST-NeDLG PDZ domain 3 (Mus musculus (Mouse)), P70175; assay: G' assay; further: key of the grades not given here
T6 chain: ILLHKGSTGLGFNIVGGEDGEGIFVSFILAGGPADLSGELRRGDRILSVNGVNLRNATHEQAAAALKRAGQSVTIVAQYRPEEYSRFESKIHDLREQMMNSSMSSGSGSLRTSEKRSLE

[7] = molecular target: T7, GST-KIAA0303 PDZ domain 1 (Homo sapiens (Human)), O15021; assay: G' assay; further: key of the grades not given here
T7 chain: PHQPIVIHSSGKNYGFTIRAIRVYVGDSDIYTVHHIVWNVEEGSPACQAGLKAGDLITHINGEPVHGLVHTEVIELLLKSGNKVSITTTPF

[8] = molecular target: T1, GST-NeDLG PDZ domains 1, 2, Q92796; assay: G' assay; further: key of the grades not given here
[9] = molecular target: T8, GST-KIAA0807(S) PDZ domain 1 (Homo sapiens (Human)), Q6P0Q8; assay: G' assay; further: key of the grades not given here
T8 chain: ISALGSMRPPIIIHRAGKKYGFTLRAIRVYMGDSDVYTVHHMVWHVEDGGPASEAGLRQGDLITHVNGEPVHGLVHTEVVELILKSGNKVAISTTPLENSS

[10] = molecular target: T9, GST-DLG2 PDZ domain 2 (Homo sapiens (Human)), Q15700; assay: G' assay; further: key of the grades not given here
T9 chain: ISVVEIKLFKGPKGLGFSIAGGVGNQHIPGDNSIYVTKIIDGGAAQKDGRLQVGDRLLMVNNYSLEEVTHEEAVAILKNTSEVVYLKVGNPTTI

[11] = molecular target: T10, GST-MUPP1 PDZ domain 10 (Homo sapiens (Human)), O75970; assay: G' assay; further: key of the grades not given here
T10 chain: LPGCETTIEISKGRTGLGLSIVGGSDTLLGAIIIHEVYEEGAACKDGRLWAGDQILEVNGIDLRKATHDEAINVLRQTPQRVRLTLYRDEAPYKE

[12] = molecular target: GST-KIAA1634 PDZ domain 1 (Homo sapiens (Human)), Q5TCQ9; assay: G' assay; further: key of the grades not given here
GST-KIAA1634 PDZ domain 1 (Homo sapiens (Human)), Q5TCQ9, sequence (Q5TCQ9 401-502): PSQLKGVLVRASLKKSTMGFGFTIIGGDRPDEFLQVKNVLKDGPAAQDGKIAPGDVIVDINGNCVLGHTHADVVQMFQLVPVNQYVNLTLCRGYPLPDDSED

[13] = molecular target: T2, GST-BAI-1 Associated Protein PDZ domain …; assay: G' assay; further: key of the grades not given here
[14] = molecular target: GST-DLG2 PDZ domain 1 (Homo sapiens (Human)), Q15700; assay: G' assay; further: key of the grades not given here
[15] = molecular target: GST-DLG1 PDZ domains 1, 2 (Homo sapiens), Q12959; assay: G' assay; further: key of the grades not given here
[16] = molecular target: T11, GST-KIAA1719 PDZ domain 3 (Homo sapiens (Human)), Q9C0E4; assay: G' assay; further: key of the grades not given here
T11 chain: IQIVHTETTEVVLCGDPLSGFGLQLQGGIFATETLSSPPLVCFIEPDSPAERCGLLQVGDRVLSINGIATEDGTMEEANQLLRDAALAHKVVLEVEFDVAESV

[17] = molecular target: GST-PSD95 PDZ domains 1, 2, 3 (Homo sapiens), P78352; assay: G' assay; further: key of the grades not given here
GST-PSD95 PDZ domains 1, 2, 3 (Homo sapiens), P78352, sequence (P78352 62-395): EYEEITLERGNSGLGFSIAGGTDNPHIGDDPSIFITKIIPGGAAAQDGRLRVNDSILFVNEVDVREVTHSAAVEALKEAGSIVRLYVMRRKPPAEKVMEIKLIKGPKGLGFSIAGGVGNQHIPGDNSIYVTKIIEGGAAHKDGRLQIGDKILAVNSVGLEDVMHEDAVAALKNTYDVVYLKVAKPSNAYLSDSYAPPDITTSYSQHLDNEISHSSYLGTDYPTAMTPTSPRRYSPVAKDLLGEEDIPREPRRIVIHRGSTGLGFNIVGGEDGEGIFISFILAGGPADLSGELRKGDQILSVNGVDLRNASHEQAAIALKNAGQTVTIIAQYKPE

[18] = molecular target: GST-PSD95 PDZ domain 1 (Homo sapiens); assay: G' assay; further: key of the grades not given here
[19] = molecular target: GST-Atrophin-1 Interacting Protein PDZ domain 1 (Rattus norvegicus (Rat)), O88382; assay: G' assay; further: key of the grades not given here
GST-Atrophin-1 Interacting Protein PDZ domain 1 (Rattus norvegicus (Rat)), O88382, sequence (O88382 408-511): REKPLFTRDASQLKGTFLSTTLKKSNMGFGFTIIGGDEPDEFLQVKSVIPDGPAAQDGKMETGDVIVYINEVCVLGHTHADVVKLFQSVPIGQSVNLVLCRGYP

[20] = molecular target: GST-KIAA0147 PDZ domain 1 (Homo sapiens (Human)), Q14160; assay: G' assay; further: key of the grades not given here
GST-KIAA0147 PDZ domain 1 (Homo sapiens (Human)), Q14160, sequence (Q14160 other isoform, or with tags, fused parts or gaps): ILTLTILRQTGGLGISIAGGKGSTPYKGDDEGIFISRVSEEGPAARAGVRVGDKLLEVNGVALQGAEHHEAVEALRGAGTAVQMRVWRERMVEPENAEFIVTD

[21] = molecular target: T12, GST-MUPP1 PDZ domain 11 (Homo sapiens (Human)), O75970; assay: G' assay; further: key of the grades not given here
T12 chain: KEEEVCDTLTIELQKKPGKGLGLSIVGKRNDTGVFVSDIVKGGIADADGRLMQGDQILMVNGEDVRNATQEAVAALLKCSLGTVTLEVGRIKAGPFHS

[22] = molecular target: T3, GST-PSD95 PDZ domain 3 (Homo sapiens); assay: G' assay; further: key of the grades not given here
[23] = molecular target: GST-DLG1 PDZ domain 1 (Homo sapiens), Q12959; assay: G' assay; further: key of the grades not given here
[24] = molecular target: T13, GST-DLG1 PDZ domain 3 (Homo sapiens), Q12959; assay: G' assay; further: key of the grades not given here
T13 chain: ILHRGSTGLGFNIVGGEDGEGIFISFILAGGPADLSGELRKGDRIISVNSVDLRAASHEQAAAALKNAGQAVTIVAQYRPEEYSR

[25] = molecular target: T14, GST-Outer Membrane PDZ domain 1 (Homo sapiens (Human)), P57105; assay: G' assay; further: key of the grades not given here
T14 chain: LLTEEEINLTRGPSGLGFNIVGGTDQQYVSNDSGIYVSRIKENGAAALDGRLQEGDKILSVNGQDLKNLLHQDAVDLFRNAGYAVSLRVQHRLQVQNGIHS

[26] = molecular target: GST-DLG1 PDZ domains 1, 2 (Homo sapiens), Q12959; assay: G assay titration, PDZ 5 ug/ml
[27] = molecular target: GST-KIAA807 [GST: P08515]; assay: G' assay; further: key of the grades not given here
GST-KIAA807 [GST: P08515], sequence (P08515 whole entry, the tested form may be a part): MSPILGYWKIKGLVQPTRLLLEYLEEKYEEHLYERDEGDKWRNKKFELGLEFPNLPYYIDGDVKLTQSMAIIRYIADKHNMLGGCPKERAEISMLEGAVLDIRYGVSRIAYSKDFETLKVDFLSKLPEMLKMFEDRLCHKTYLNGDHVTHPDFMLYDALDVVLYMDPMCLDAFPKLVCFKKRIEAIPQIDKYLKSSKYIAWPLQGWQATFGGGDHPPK

[28] = molecular target: T15, GST-EZRIN Binding Protein 50 PDZ domain 1 (Homo sapiens (Human)), O14745; assay: G' assay; further: key of the grades not given here
T15 chain: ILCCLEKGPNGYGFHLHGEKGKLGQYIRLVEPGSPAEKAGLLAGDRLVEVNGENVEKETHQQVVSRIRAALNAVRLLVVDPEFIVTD

[29] = molecular target: T16, GST-PDZK1 PDZ domain 2 (Homo sapiens (Human)), Q5T2W1; assay: G' assay; further: key of the grades not given here
T16 chain: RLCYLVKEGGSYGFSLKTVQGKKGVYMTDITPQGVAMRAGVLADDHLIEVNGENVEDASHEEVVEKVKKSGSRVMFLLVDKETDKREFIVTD

[30] = molecular target: T17, GST-Shank 3 PDZ domain 1 (human (hypothetical, computer cloned)), Q9BYB0; assay: G' assay; further: key of the grades not given here
T17 chain: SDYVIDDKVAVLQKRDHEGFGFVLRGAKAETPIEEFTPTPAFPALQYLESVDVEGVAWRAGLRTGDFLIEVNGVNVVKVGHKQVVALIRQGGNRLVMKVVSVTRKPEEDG

[31] = molecular target: T18, GST-Shank 1 PDZ domain 1 (Homo sapiens (Human)), Q9UPX8; assay: G' assay; further: key of the grades not given here
T18 chain: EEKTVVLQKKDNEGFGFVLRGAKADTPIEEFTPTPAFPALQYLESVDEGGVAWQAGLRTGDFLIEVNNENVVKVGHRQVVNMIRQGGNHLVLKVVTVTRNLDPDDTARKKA

[32] = molecular target: T19, GST-KIAA0561 PDZ domain 1 (Homo sapiens (Human)), O60307; assay: G' assay; further: key of the grades not given here
T19 chain: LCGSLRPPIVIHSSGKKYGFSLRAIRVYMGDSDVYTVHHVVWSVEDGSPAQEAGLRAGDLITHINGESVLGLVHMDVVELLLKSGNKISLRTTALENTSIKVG

[33] = molecular target: T20, GST-EZRIN Binding Protein 50 PDZ domain 2 (Homo sapiens (Human)), O14745; assay: G' assay; further: key of the grades not given here
T20 chain: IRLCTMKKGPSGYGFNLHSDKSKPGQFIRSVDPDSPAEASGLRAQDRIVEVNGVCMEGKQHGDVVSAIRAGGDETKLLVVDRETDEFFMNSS

[34] = molecular target: T21, GST-PDZK1 PDZ domains 2, 3, 4, Q5T2W1; assay: G' assay; further: key of the grades not given here
T21 chain: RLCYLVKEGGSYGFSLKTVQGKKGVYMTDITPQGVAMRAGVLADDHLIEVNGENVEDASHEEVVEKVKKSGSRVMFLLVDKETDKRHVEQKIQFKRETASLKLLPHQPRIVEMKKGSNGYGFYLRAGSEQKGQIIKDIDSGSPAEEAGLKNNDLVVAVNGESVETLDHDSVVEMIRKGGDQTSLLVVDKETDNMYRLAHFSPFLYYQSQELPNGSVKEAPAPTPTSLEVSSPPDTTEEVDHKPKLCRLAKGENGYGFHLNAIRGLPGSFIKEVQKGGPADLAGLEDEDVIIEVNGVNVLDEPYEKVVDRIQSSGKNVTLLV

[35] = molecular target: T8, GST-KIAA0807(S) PDZ domain 1 (Homo …); assay: G assay titration, PDZ 0.3 ug/ml
[36] = molecular target: T16, GST-PDZK1 PDZ domain 2 (Homo sapiens …); assay: G assay titration, PDZ 5 ug/ml

Kd [1]: 100 nM
Kd [2]: 300 nM
Kd [3]: 100 nM
Classification [4]: 2 A450 class
Classification [5]: 1 A450 class
Classification [6]: 2 A450 class
Classification [7]: 1 A450 class
Classification [8]: 5 A450 class
Classification [9]: 1 A450 class
Classification [10]: 1 A450 class
Classification [11]: 2 A450 class
Classification [12]: 5 A450 class
Classification [13]: 5 A450 class
Classification [14]: 1 A450 class
Classification [15]: 5 A450 class
Classification [16]: 1 A450 class
Classification [17]: 5 A450 class
Classification [18]: 3 A450 class
Classification [19]: 1 A450 class
Classification [20]: 2 A450 class
Classification [21]: 1 A450 class
Classification [22]: 5 A450 class
Classification [23]: 2 A450 class
Classification [24]: 1 A450 class
Binder: SFTSILTCHQRRTQRKETVA (modifications not checked) [GluR5-2 (rat)]

Classification [4]: 1 A450 class
Classification [8]: 1 A450 class
Classification [10]: 1 A450 class
Classification [12]: 1 A450 class
Classification [25]: 4 A450 class
Classification [15]: 2 A450 class
Classification [17]: 2 A450 class
Classification [19]: 1 A450 class
Kd [26]: 5000 nM
Binder: LHNQASVPLEPRPLRRESEI (modifications not checked) [Kir2.1 (inwardly rect. K+ channel)]

Classification [9]: 2 A450 class
Classification [27]: 2 A450 class
Classification [28]: 3 A450 class
Classification [29]: 1 A450 class
Classification [30]: 3 A450 class
Classification [31]: 3 A450 class
Classification [32]: 1 A450 class
Classification [33]: 3 A450 class
Classification [34]: 1 A450 class
Kd [35]: 1000 nM
Kd [36]: 2000 nM
Binder: PSWRRSSLSESENATSLTTF (modifications not checked) [BLR-1]
